Measurements published in the domain aggregation screens of Martell et al. (2025).

Assay: soluble fraction after stress (log2 fold change); higher = more stays soluble; pooled small domains, quantitative proteomics
Conditions: stress: 50 degC
How it was run: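 The measure of aggregation propensity here is the base-two logarithm of the fold change in the soluble amount of each protein after stress. A higher value means more of that protein stays in solution. Stress was applied at 50°C to pooled libraries of small protein domains, read out by high-throughput quantitative proteomics.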

Sequence	soluble fraction (log2)
HMVPLSPRFFDIFRKRKDLTRQNVDVYFRDHPTEITAFERYIKGLVSQSYIPAERADALLLVASQYKAK	-0.784
HMSLIDYLNELMNEKNITVAQVAKNSGIGEYVYKIFNGERNAKRDTLVAISFGMHLNFEETQLLLRIA	-0.682
HMNKPTSMYKLRLLLKHYHAGASKRWMADVLDISRSTLNVYLARIESLNLAFEEWEALSDLEVSRLLINP	-3.05
HMDYTPIEVKDLPQAIQDALTKNFSEYTVKSAAYQEDEDGVKIYQVTVVDEEGTEANIFFTEKGE	0.0163
HMRKPISQEIVDEVLKLAKNNPDWGYDRIAGVMKYLKYDVSATTVRHILDDNGIVPDPERRLR	0.333
HMEREQNIAQGREVVQRELKRLGLTDVFTVEDIGRALKFDDIDEFLSKVGFGDIQTAKITGAIALMQQALR	0.0611
HMQNLETVEEIKELALNYLDKYQPSKKSLQVYLFRKAIDAQSNSVEKSEILKKIETVLTDLEEQGILNDAL	0.0664
HMTPTNILIVEDEKEIRRFVRTALESEGLRVFESETLQRGLIEAGTRKPDLIILDLGLPDGDGLSYIRDLR	-0.123
HMTTIFDNINGELRRRHLTQQDLAKTIEIDRRTWSKWQDKNDMPASVLLQIAKWLNVTLDYLTRD	-2.08
HMIKNKDRIQYTLAHRKAFRKIEKELLGYNTFRSLFHDLDKVFLYPFFDYKKVHNFHRNHAHH	0.199
HMIDEQDLKKYILISTSVEELTDYLGATDRMLYDYLYSLKHVGQYWQLNERFLLDLYKLPNLVIVDKEDLE	-0.136
HMLDSNILTLIKELKIRHHFTATQTHQLEKVIQQAHALGLDNSEIRSLANSSPSAKSLINDLNQKLEPLRL	-0.398
HMLGWEDVIQFEEVKGYGQHIWRDGNHLYYVTEEGGIAPQRVVYELPNELFALLESGERTQLEILSKLQ	-3.11
HMDSSITLMRMYIPKGHNWENKLISDVSMPTNSLALMIKRNGTTIIPKGDTMILAKDTLILSVPSYEPS	-1.13
HMSSKSDQLYLQLRRRISAMKDGEPFPTVRQLMTEYQVSQSTVTPAINQLKEKGLIEAYVGRGSFVSKK	-0.615
HMAKLTPDQQELRAIRIELQMSQPDFADAININVPRLSSYEYGRTAGVPTSIMEAARELKRSMSR	-0.811
HMGAYPENSLLKERGQSAVYLIQENRKRLFFNAEAFLINGYNWKDIQVVDDLSKILTGKVIYAK	-2.76
HMGKAYMVPDVKNKSVNQAQLLLADKHMNGVVVDSSYVKELPAGIVLDQTPVGGMKVKEGRTVYLTINSD	-0.0262
HMRLHSSGEDYLKAIFILEAQHSSVRSVEVAEYMNVSKASVSHAVALLKKNGFLKMNQDYDLTER	0.0124
HMAEPLYKQVKNKIIQNLTSDEWKPGSVIPSETKLAETYGVGVSTIRMAIGELVAARILIRRQGKGTFVSS	-1.85
HMSEFLTIVRAVYSGLSRRKVAAMHKVSRNTVSLYLRQARDQGWLTLEDLEKLDDLTVSQGVS	-2
HMGPRVSAGPGRHRVQPGDTLDDIAARYRVSSRDLMLVNGLRNANHVEAGQTLKLPSNAVIA	0.28
HMSQDINVFIKTNPENATIIWDGESKGTNGIFKSNAGAHRLRIEMQGYESIDQDIQVSDKQFSFEYNLKKE	0.152
HMNNLKTKELSKIGYTNDKARSLVISIIPKHFKYHSKSEIIELLTNIKNKPEDYVSDEILGKIAETFMEKI	-0.215
HMEDYYKILGVQSNSNPDDIKKAYRKLSLKHHPDRGGDASEFKKINEAYQTLGTPEKRKMYDMQQNN	-0.0117
HMPNGEAYQRFTYENDILEGRFEEWDSLGTDIVKGDYTAGVRHKKWLYYDSEGRRDKFVFLDMDSI	0.0763

Sequence	soluble fraction (log2)
HMINFLSKREIEVLRLVADGLSNRDVGQYLFISESTVKRHLSTIYEKLAVKSRTQAIDHARRADL	-3.91
HMTGDISRALDQLPADMRTVLILYALEKQRYEDIAQITGVSVGTVKSRLNRARQKLAAILANQREQNE	-0.488
HMPMNISDIIKQAREELGMTQEDLAERLEVSRQAVSKWELGASVPSPENLRLLEELLGVELPAP	-0.0297
HMDGQPLSERQQEILRWVAEGLSNREIGERLNITPNTVRDHLSEVMRRLEVSNRTSAVSTAFHLGLLP	-0.115
HMSDPDPAEQALLRQFMTRYAAYRRRGQHPAGAFRTASLEVFGQEPSGDLRDVIVDLESGLV	-0.137
HMHQPPDLDDFEAFVGRVKPALLQALVATYGPVDGREATVDALSWAWEHWDRLADVDHPVGYLYRV	0.0368
HMEIDDPWLILGINAGSSIEIAQKAWKDLASQNHPDKLIANGVPKELLGMANEKLAIINGAYDKILKAHKI	-0.262
HMVDPRLRSLTPQERRILEHIAEGLTNRQIAEDMFLAEKTVKNYVTSILDKLGMDSRTQAAVYAATHPT	-0.252
HMTQSGLTQWEFNMLRQALIEMLGEKPGSVFELARLLPLEQEKNVQALRFLLDHDDQFHLKDEYISFVKRT	-1.92
HMQMRKENKILVTDIGEIDEVKVIFDDDNKPYLYSYNGEDEFYRPDETYKFFDNKEQAEEYVREN	0.0625
HMQDQVTLIVQVNGKLRGQISISTDATKELIEQTALANENVQKFVDGQSIKKIIIVPGRLVNIV	-1.12
HMNVSVSITKELQVYINDERISSSALESTLKSKLAGIENPTIILRAEEGVPIEKAVNVMDIANRNRYKIVL	-0.522
HMDDTPLNNVIKKIAALPENITLADKSAVLSAWEAYQALSVNLKAQVSNSELLIKAYETILQLEGEDQIK	0.235
HMKNYYRILGLNIDAEYEEIKAAYRILAQRHHPDKGGAAAEFRLIQEAYDILSNPLTKRNYDADLLATLN	-0.521
HMKKVTMQDIANILNISRVTVWKVLNNQPGVSKQLRDQILLTAKETGYLKPGQEAEAYLEENNIYFEG	0.176
HMHRFAVLDTVREVAAGGVAATLSIGVGRDADSFDALFKNASMALEMALSRGGDQAVVKDRMNFQFYGG	0.0659
HMNEYIVSAEQEGMRLDVFLTEQMEGSRSYIQSLIKGGHVTVGDKVGKANLRLTPDTVIHVEIPEPE	0.0524
HMALPDWLDPEAWAAWKRHRKAIRKPLTEDAVALSIRELAKLRDEGYGPTSVIENAILKGWQGLYPPK	-0.133
HMPLTAASLQTYLRGVDYPASKQDLIAHARKSDAPEDAITVLEQYSEQTYRSAADVSAEFGS	0.178
HMSAQDLIVRRDSARIEARVTEISPTEIRYKRASNPDGPTYVLPLGDVRSIRYANGEEEVFAPA	-0.138
HMSGKMTVPNVVGKTETEAKSALSAKGFTNVRTETVDSTEAAGTVVKQSLDADSVQDPKTEIVLSVSNG	0.608
HMSPSDLSAEAQKVYALLDGRELSFDTLVEESGFDTGSLLAILMRLEMKMLVEHGADQVYRRSG	-0.58
HMRNTPQRRHAILALLSEQGEVSVDALAKRFSTSEVTIRKDLAAMESHGLLLRRYGGAVPMPQELI	-0.928
HMGMGIGQIIKEKRTALKMTQNELAERLGVSQQSVTGWENNAAVPRESAVRGMMDIFGLSRNELFGEP	0.331
HMEAYMVPNVKNKTLNEAQQALSNQKLKGLVIDSSYVKGVPDGMVLDQNPAGGARVKEGRTIYLTVTTS	0.318
HMDRGDVTREALIKAAIEIFGRDGFHAASTRAIAERAGANQALIGYHFRGKLGLYHATFEYIIGKI	-0.315

Sequence	soluble fraction (log2)
HMLNPMILLTKGGENIRLDKFLSSHLSDLSRTQIQKMVKEGLVLVNGEPSKVGLKLDGSETIQYTLPK	-0.00634
HMLAIKKGGIFAILGPNGSGKSTFSKVLAGHPAYTVVDGDIFFKGLSILDLEPEERSHLGIFLAFQ	-0.153
HMRARTQYWPFVEEKAAELKLPLHLVNVEPLFGEQKVVVHYTANGRIDFRELVHLLARRFHARIEMR	0.212
HMKLTKPKLIQLIHIAKSKLNMDELSYRVLLDNLTGKTSTTKMTVGELLKVYESMKDKGFKPQV	-0.166
HMSLEEIPLEERLGPGGLDPVAVYDSLPREMRDAFDSGSVSALREFVNALPAEDAARHMKAMVDSGLWVPT	0.0547
HMEGVSSESVKEMLKSIIDGEDPHNPVSDQRITDILNSRGINISRRTVAKYRDELGIASSSRRKRY	0.0818
HMISAADLQTYLKGMDYPAGREDLVAHAQRNNAPESVITILQGFSDRTYRSAAEVSEEFGRE	0.194
HMKTKTIMSTGAREDLVKMINEYYYSKNYIITEDNRIYNTKTEKFMDDLSVKFYRGRWKVIRN	-0.813
HMENVVESIYNKMVESITNGQWAAGSKIPTENELAKTYQVSRSSVRQAISRLKALGLLESRQGSGTVIKK	0.272
HMWWTPIILRDALFGVQRFEDFQKNLDVSRATLSSRLTRLVDEGLMEKVEYQQHPVRHEYVLTEKGR	-0.108
HMEPEDVIAMERYLASGAIKGIGVTLAGRIIKKFQKETFHIIEEEPERLSEVKGISEKLAREIYQQFTQK	-0.873
HMNGSVLVTGGSVWIRAGASKETDGLGIVHKGDVLKRSGSDASGWRGVVYEGQNAFISAKYSSI	-0.916
HMSISSSEAARSAVASSGGTVLGVSKASHGGYKAWAVRIQRADGSVVTGYVDRASGTVYDWVVNQAA	-0.3
HMRARTLSTTGGESLLTLAESLYPDDDRARARFIEATAAANPKLFADIAALTRVLPAGTTLRMPDLRA	0.0417
HMRQFEPVEGYNPYADKNELHGYEYWGAKFADSRSPEETAWIKQQIDDENEDRRFISEAGLA	-0.0012
HMHTGEVVNGKVIDVKEDQIILNVGFKSDGIITRSEYSNDNSLDLRTVVNVGDDMEAKVLKINDGEGQVLL	-0.185
HMANLLNLREIPVANIRPELTMFLIPGENITQAFQTIRDQVVFTNKRLIVANVQGLTGKKVSYTSYPY	-0.374
HMARIDYHAMDSDDLSFSEGELLEIYDKPGSFWWKGRSLVSGDEGDIPS	-0.157
HMGNNSIDIKDVIYNLVEISQLQAFDIVKHFKTWENLVNKPDELDTVIDGDSDIVDRIKYKIKSLS	0.109
HMQAVKQIKVERGMTLEKIAQSEFGDSTRWGEIVEVNNLRAPYISDDPTETRDGVLKPGSNLLIPIP	0.094
HMKETERKILQAVLGLPLKYRDVIHLFYYEEMSVKEIAEVLHRQESTVTSQLTRARGILKKNL	0.09
HMSLPQSKDAVITILRTLPQLDTRAPEVYKLLGPHALDIILEDPEQVAKKINHVGVATAKLWQQALLGFK	-0.2
HMEQKISVPALVGRDIEEILADTEVTGNFTIKEADKRVASNRPVGEVLEQDPGTGESAVKGTIITVTVSAG	0.0124
HMSVFGMEIGKTTEAEAGRMYRLNKEQLNPYSGGYQYSVNPKAIDFSGLEQVTLIFDEKKVLVYVQAV	-0.0837
